Assay results taken from patent US20110212084A1 (AstraZeneca / MedImmune, published 2011).
Where a chain is given by its changes, count along the chain named.

B1: Antibody 8 (scFv) (scFv, V domains shown)
VH: EVQLLESGGGLVQPGGSLRLSCAAPGFTFSSYAMSWVRQAPGKGLEWVSAISGGSGGRTYYADSVKGRFTISRDNSKNTLYLQMNSLRAEDTAVYYCARHIAVAGTRGFDYWGRGTLVTVSS
VL: SYVLTQPPSVSVSPGQTASITCSGDKLGDTYASWYRQRSGQSPVLVIYQDDKRPSGIPERFSGSNSGNTATLTISGTHTMDEADYYCLAWDTRTSGAVFGGGTKLTVL
notes: purified scFv
B2: Antibody 16 (scFv) (scFv, V domains shown)
VH: B1 VH
VL: B1 VL with K104E
notes: purified scFv
B3: Antibody 17 (scFv) (scFv, V domains shown)
VH: B1 VH
VL: B1 VL with N68D
notes: purified scFv
B4: Antibody 18 (scFv) (scFv, V domains shown)
VH: B1 VH with P25S, M34V
VL: B1 VL with N68D, H78R
notes: purified scFv
B5: Antibody 19 (scFv) (scFv, V domains shown)
VH: B1 VH with P25S, I51V
VL: B1 VL with Y2F, G76R
notes: purified scFv
B6: Antibody 23 (scFv) (scFv, V domains shown)
VH: B1 VH with P25S, G26E, S30G
VL: B1 VL with T69A
notes: purified scFv
B7: Antibody 6 (scFv) (scFv, V domains shown)
VH: EVQLLESGGGLVQPGGSLRLSCAASGFTFSSYAMSWVRQAPGKGLEWVSAISGSGGRTYYADSVKGRFTISKDNSKNTLYLQMNSLRAEDTAVYYCARHIAVAGTRGFDYWGRGALVTVSS
VL: B1 VL
notes: purified scFv
B8: Antibody 11 (scFv) (scFv, V domains shown)
VH: B7 VH with K72R, L86P, A115T, T118A
VL: B1 VL with T21A
notes: purified scFv
B9: Antibody 13 (scFv) (scFv, V domains shown)
VH: B7 VH with T69A, I70V, K72R, A115T
VL: B1 VL with K52R
notes: purified scFv
B10: Antibody 22 (scFv) (scFv, V domains shown)
VH: B7 VH with V64A, K72R, S85G, A115T
VL: B1 VL with A32T, I57V
notes: purified scFv
B11: Antibody 14 (scFv) (scFv, V domains shown)
VH: B7 VH with S25P, A33P, R57S, K72R, A115T
VL: B1 VL with Y2F, T5S
notes: purified scFv
B12: Antibody 20 (scFv) (scFv, V domains shown)
VH: B7 VH with K72R, H99S, I100T, A101Y, V102F, G104S, A115T
VL: B1 VL with T30K
notes: purified scFv
B13: Antibody 21 (scFv) (scFv, V domains shown)
VH: B7 VH with K72R, H99L, I100T, A101F, V102P, G104I, A115T
VL: B1 VL with T30K
notes: purified scFv
B14: Antibody 28 (scFv) (scFv, V domains shown)
VH: B7 VH with K72R, H99L, I100W, A101F, V102P, G104I, A115T
VL: B1 VL
notes: purified scFv
B15: Antibody 29 (scFv) (scFv, V domains shown)
VH: B7 VH with K72R, H99L, I100T, A101F, V102P, G104I, A115T
VL: B1 VL
notes: purified scFv
B16: Antibody 30 (scFv) (scFv, V domains shown)
VH: B7 VH with K72R, H99L, I100S, A101Y, V102P, G104I, A115T
VL: B1 VL
notes: purified scFv
B17: Antibody 31 (scFv) (scFv, V domains shown)
VH: B7 VH with K72R, H99L, I100S, A101Y, V102P, G104I, A115T
VL: B1 VL with T30K
notes: purified scFv

molecular target: T1, cynomolgus IgE (recombinant chimaeric D12 variable region / cynomolgus IgE constant region) (cynomolgus monkey (constant region)); experiment: HTRF receptor-ligand competition, scFv titrated; Eu-cryptate cynomolgus IgE binding to human FcεRI-Fc; geomean
T1 construct: also called cyno IgE; cynomolgus IgE (in house HEK-EBNA derived)
T1 sequence (heavy, as listed by the source limits assumed, chain 1 of 2): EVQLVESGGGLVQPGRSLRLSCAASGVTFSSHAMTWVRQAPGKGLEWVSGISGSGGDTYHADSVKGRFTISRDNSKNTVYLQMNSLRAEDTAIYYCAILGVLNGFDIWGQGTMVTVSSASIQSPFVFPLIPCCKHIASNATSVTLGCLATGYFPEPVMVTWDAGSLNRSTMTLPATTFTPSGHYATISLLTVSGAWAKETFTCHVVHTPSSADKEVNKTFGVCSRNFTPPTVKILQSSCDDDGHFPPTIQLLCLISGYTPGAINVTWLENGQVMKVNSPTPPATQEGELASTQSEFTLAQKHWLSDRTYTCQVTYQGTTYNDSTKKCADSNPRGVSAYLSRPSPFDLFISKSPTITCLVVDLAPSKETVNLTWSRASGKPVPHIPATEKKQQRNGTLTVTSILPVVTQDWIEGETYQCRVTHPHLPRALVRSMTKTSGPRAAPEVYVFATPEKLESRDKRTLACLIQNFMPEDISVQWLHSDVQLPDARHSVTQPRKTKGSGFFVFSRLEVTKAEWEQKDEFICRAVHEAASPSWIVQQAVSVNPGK
T1 sequence (light, as listed by the source limits assumed, chain 2 of 2): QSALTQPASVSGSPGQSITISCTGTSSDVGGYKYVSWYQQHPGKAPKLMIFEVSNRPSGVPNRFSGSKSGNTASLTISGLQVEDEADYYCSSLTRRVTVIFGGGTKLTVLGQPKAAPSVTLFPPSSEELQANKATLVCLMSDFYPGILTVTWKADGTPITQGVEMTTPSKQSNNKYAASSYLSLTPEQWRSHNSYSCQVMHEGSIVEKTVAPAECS
Experimental: (§1) Purified scFv were tested in a receptor-ligand binding HTRF® (Homogeneous Time-Resolved Fluorescence) assay format for inhibition of either human IgE (U266-derived [Ikeyama et. al. 1986. Molecular Immunology 23 (2); p159-167]) or cyno IgE (recombinant, see materials and methods) labelled with europium cryptate (CIS bio International 62EUSPEA), binding to human FcεR1-Fc (in house NS0 cell produced). Example scFv potency data is included in Table 5a
as §1, with “produced).” for “produced). Example scFv potency data is included in Table 5a”

Binder	IC50
B1	438 nM
B2	280 nM
B3	264 nM
B4	129 nM
B5	197 nM
B6	331 nM

molecular target: human IgEλ (U266 derived) (human, UniProt P01854 1-546); experiment: HTRF receptor-ligand competition, scFv titrated; Eu-cryptate human IgE (U266) binding to human FcεRI-Fc; geomean
Sequence (P01854 whole entry): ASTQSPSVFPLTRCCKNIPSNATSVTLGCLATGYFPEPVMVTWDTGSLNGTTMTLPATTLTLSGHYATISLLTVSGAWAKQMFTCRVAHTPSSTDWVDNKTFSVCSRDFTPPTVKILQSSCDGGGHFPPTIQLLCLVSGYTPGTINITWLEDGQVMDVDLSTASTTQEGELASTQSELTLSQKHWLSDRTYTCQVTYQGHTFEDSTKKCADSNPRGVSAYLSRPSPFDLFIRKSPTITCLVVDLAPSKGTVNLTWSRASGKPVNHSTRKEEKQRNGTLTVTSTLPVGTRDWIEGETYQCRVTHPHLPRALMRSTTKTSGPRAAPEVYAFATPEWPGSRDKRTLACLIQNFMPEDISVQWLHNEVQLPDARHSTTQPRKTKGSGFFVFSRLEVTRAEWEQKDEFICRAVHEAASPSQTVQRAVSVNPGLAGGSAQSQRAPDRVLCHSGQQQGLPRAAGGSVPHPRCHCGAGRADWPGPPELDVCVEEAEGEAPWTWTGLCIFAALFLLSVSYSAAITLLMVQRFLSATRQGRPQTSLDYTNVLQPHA
Experimental: as §1
as §1, with “produced).” for “produced). Example scFv potency data is included in Table 5a”

Binder	IC50
B1	8 nM
B2	10 nM
B3	7 nM
B4	6 nM
B5	9 nM
B6	7 nM
B7	8 nM
B8	7 nM
B9	9 nM
B10	7 nM
B11	7 nM
B12	5 nM
B13	4 nM
B14	4 nM
B15	6 nM
B16	4 nM
B17	9 nM
